Assay results: paper PMC3200314

Target: recombinant neuraminidase ectodomain of A/California/04/2009 (pH1N1) (influenza A virus A/California/04/2009 (H1N1))
Assay: SEC

recombinant neuraminidase ectodomain of A/California/04/2009 (pH1N1) (domain or fragment)
stoichiometry N: 4
